Data on 2 sequences can be found in the supplement of paper PMC6379048.

What all share (assay): Kd (EC50 corrected by depletion factor)
The target in series [1] is SRSF10 (UniProt O75494). The method in brief: (§1)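 To obtain EC50, data were fitted with a four-parameter log-logistic model; Kd was then EC50 multiplied by a protein-dependent depletion factor. Beforehand, free RNA oligos (0 nM to 30 μM) were pre-incubated with HEK293-FT lysate (2.5 mg protein/well) for 1 h at 4°C. The lysate then spent 30 min at 4°C with the same 5′-amino-C6 oligos coupled to NHS-Sepharose beads, and bound proteins were quantified by label-free LC-MS/MS, normalised to the control.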
SRSF10, sequence (O75494 whole entry): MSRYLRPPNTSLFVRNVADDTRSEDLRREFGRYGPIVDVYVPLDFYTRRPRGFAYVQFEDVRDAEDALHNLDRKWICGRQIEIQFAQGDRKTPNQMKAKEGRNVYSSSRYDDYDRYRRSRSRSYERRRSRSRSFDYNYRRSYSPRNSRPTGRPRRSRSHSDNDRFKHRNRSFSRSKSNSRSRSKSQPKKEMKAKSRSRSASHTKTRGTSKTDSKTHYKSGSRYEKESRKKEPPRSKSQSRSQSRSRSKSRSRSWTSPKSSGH

Series [2] has as its target T1, HMGB2 (UniProt P26583).
T1 sequence: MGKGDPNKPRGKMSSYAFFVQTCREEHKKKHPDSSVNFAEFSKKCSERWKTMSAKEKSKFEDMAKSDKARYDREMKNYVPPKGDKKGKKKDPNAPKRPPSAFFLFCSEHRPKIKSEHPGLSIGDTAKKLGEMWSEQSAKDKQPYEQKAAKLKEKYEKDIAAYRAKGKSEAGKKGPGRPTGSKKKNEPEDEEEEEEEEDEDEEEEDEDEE
The procedure, abridged:
as §1

Series [3] addresses T2, CSTF3 (UniProt Q12996).
T2 sequence: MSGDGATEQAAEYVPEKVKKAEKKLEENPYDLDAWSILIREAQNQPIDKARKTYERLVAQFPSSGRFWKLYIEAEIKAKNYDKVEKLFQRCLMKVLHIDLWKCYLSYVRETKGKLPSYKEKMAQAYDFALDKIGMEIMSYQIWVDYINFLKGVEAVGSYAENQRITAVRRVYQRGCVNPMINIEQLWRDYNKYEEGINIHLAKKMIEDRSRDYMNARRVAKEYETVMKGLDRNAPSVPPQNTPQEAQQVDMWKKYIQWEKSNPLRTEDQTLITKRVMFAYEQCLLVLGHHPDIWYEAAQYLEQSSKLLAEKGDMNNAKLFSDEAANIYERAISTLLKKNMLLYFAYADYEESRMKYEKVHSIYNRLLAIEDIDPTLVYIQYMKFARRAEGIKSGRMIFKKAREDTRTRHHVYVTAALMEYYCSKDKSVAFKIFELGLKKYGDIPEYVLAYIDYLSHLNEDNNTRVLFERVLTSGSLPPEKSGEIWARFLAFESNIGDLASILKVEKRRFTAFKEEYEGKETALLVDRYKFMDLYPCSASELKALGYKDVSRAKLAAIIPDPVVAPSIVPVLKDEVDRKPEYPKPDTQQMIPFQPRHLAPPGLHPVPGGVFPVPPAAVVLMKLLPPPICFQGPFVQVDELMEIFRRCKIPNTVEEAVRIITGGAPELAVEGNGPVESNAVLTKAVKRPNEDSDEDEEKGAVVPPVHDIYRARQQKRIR
The method in brief: as §1

Series [4] addresses T3, CWF19L1 (UniProt Q69YN2).
T3 sequence: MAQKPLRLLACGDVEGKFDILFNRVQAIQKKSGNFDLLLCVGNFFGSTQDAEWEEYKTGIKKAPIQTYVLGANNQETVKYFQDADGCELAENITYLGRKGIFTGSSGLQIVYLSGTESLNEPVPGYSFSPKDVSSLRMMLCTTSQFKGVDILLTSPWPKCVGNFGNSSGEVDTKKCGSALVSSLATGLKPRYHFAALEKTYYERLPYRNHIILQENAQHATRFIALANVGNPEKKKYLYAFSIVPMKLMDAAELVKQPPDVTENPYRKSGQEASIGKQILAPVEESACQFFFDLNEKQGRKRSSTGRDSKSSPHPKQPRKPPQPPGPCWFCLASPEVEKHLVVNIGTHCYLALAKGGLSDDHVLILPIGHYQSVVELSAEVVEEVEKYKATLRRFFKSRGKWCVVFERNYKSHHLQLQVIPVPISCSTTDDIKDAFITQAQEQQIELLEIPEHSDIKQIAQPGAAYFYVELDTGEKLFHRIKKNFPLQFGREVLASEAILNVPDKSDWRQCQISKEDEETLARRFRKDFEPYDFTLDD
The procedure, abridged:
as §1

The target of series [5] is T4, MEX3D (UniProt Q86XN8).
T4 sequence: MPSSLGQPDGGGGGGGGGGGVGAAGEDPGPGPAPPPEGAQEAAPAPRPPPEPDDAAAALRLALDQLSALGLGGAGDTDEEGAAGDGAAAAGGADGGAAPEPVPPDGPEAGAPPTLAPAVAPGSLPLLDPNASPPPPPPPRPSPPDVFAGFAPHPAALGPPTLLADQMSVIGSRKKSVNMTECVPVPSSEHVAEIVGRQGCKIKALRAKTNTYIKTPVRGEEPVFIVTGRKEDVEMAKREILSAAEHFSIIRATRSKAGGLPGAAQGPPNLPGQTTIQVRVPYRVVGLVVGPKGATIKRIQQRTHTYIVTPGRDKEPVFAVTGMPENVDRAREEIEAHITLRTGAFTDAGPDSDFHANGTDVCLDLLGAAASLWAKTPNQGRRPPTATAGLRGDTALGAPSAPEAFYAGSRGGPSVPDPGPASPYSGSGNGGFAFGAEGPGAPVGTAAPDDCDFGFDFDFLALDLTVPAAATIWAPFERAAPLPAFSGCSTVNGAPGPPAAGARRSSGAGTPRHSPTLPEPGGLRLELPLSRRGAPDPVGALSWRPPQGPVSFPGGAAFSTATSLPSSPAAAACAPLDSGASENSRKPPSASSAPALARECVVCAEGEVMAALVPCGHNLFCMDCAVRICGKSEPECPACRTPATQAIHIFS
The method in brief: as §1

As for AAUAAA, the Kd in series [1] was 0.156 µM; in series [2], 0.00205 µM.

Consider UAUUUAU, for which the Kd in series [3] came to 0.352 µM; in series [4], 1.96 µM; in series [5], 0.465 µM.
